The chains are these.
B1: Nb 2.11, monomeric nanobody (VHH)
VHH: QVQLVESGGGSVQAGGSLRLSCAASGDASNRKCVSWFRRAPGKEREGVALIFPVGSSTAYADSVKGRFTISQDSAKDTVYLQMNNLKPEDSGTYYCAAVSWGGRCNLETQTVTFWGQGTQVTVSS
B2: hcAb 2.11 (Nb 2.11 fused to the human IgG1 hinge and Fc) (Fc fusion)
chain: B1 VHH
B3: hcAb 2.15 (Nb 2.15 fused to the human IgG1 hinge and Fc) (Fc fusion)
chain: QVQLVESGGGSVQAGGSLKLSCAASGYASWARKCIGWFRQAPGQEREGVAAIFDFDGSTYYSDSVKGRFTISGDNAKNTVSLQMNSLLPKDTAVYYCTVAFGTCDNWYRGRGDYWGQGTQVTVSS
B4: Nb 2.15, monomeric nanobody (VHH)
VHH: B3 chain
B5: Nb 1.16, monomeric nanobody (VHH)
VHH: QVQLVESGGGSVQAGGSLRLSCAASGNTSKRKCVGWFRRAPGKEREGVTLIYTVGGSTVYADSVKGRFTISQDNAKDTVYLQMNSLKPEDSAMYYCAAESWGRQCNLETHRFTFWGQGTQVTVSS
B6: hcAb 1.16 (Nb 1.16 fused to the human IgG1 hinge and Fc) (Fc fusion)
chain: B5 VHH
B7: hcAb 1.10 (Nb 1.10 fused to the human IgG1 hinge and Fc) (Fc fusion)
chain: QVQLVESGGGSVQAGGSLRLSCAASGYTYSTCRKGWYRQAPGKERELVASITADGATYYLDSVKGRLTISQDNAKNTVYLQMNSLKPEDTAVYYCAASVKDFTCTFNSWGQGTQVTVSS
B8: hcAb 1.26 (Nb 1.26 fused to the human IgG1 hinge and Fc) (Fc fusion)
chain: QVQLVESGGGLVQAGGSLRLSCAATGYTWSSVCMGWFRQAPGKEREGVAGIPSGRNRPYYADSVKGRFTISQDNAKNAVFLLMNSLKPEDTAIYYCAPCSAPHDPEYNYWGQGTQVTVSS
B9: hcAb 1.29 (Nb 1.29 fused to the human IgG1 hinge and Fc) (Fc fusion)
chain: QVQLVESGGGSVQAGGSLRLSCAASGYTINTDAVAWFRQAPGKGDERVAVIYTGSGNTNYADSVKGRFTISQDNAKNTVYLQMNSLKPEDTALYYCASGYYGASGYDFNNWGQGTQVTVSS
B10: hcAb 2.1 (Nb 2.1 fused to the human IgG1 hinge and Fc) (Fc fusion)
chain: QVQLVESGGGSVQAGGSLRLSCAAFGATISSAHMGWFRQAPGKEREGVAFRYTDGSSTYYTTSVRGRFTISQDNAKNTVYLQMNSLKPEDTAMYYCASNPSWGRLVGGQYNNWGQGTQITVSS
B11: Nb 2.1, monomeric nanobody (VHH)
VHH: B10 chain
B12: hcAb 2.20 (Nb 2.20 fused to the human IgG1 hinge and Fc) (Fc fusion)
chain: QVQLVESGGGSVQAGGSLRLSCAASGYTYNNYYMGWFRQAPGKEREGVAAINSDGLDTYVADSVKGRFTISRDNAKDTVHLQMNSLKPEDTAIYSCATGRTVYYSGYDFRLSVDDYWGQGTQVTVSS

This assay deals with monomeric SARS-CoV-2 RBD (S residues 332-534) with Flag peptide and 8xHis-tag (SARS-CoV-2 (WA1 strain), UniProt P0DTC2 332-534). The experiment in a line: SPR.
Molecule B1 had a Kd of 2.17 nM. On to B2, for which the Kd was determined as 0.16 nM. As for B3, the affinity, expressed as Kd, was 0.08 nM. In the case of B4 it was 0.39 nM; in that of B5, 3.59 nM; in that of B6, 0.25 nM.

The molecule B7 gave a Kd of 0.77 nM. Next, B8: 0.08 nM; B9: 0.63 nM. For B10, binding was put at a Kd of 0.36 nM. B11 showed a Kd of 1.74 nM. Against the preceding molecule, the Kd is about 4.8-fold higher. As for B12, the dissociation constant (Kd) is 0.21 nM. This Kd lies about 8.3-fold lower than the previous one.
